Experimental data as given in IntAct's records for PubMed 22416126.

B1: Paraspeckle component 1 (Homo sapiens), Q8WXF1-1 (parent)
chain: MMLRGNLKQVRIEKNPARLRALESAVGESEPAAAAAMALALAGEPAPPAPAPPEDHPDEEMGFTIDIKSFLKPGEKTYTQRCRLFVGNLPTDITEEDFKRLFERYGEPSEVFINRDRGFGFIRLESRTLAEIAKAELDGTILKSRPLRIRFATHGAALTVKNLSPVVSNELLEQAFSQFGPVEKAVVVVDDRGRATGKGFVEFAAKPPARKALERCGDGAFLLTTTPRPVIVEPMEQFDDEDGLPEKLMQKTQQYHKEREQPPRFAQPGTFEFEYASRWKALDEMEKQQREQVDRNIREAKEKLEAEMEAARHEHQLMLMRQDLMRRQEELRRLEELRNQELQKRKQIQLRHEEEHRRREEEMIRHREQEELRRQQEGFKPNYMENREQEMRMGDMGPRGAINMGDAFSPAPAGNQGPPPMMGMNMNNRATIPGPPMGPGPAMGPEGAANMGTPMMPDNGAVHNDRFPQGPPSQMGSPMGSRTGSETPQAPMSGVGPVSGGPGGFGRGSQGGNFEGPNKRRRY
partner: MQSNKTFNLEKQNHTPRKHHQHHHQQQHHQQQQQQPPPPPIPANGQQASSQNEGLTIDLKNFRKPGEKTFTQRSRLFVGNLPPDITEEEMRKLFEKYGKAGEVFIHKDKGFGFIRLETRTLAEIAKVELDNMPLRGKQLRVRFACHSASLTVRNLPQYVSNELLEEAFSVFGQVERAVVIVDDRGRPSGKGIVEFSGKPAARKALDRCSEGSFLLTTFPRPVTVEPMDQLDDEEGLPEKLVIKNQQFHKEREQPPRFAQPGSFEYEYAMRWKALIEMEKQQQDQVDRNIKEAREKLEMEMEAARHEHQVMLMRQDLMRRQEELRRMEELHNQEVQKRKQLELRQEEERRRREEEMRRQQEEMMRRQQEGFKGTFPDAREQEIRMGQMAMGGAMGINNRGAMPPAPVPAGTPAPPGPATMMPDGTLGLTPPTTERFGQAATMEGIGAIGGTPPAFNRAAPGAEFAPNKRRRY
B2: Non-POU domain-containing octamer-binding protein (Homo sapiens), Q15233 (parent)
chain: B1 partner
partner: B1 chain

Variants of: B1
Details: with nono_human NONO

Row | effect of a mutation on the interaction | Variant
1 | decreasing interaction strength | MMLRGNLKQVRIEKNPARLRALESAVGESEPAAAAAMALALAGEPAPPAPAPPEDHPDEEMGFTIDIKSFLKPGEKTYTQRCRLFVGNLPTDITEEDFKRLFERYGEPSEVFINRDRGFGFIRLESRTLAEIAKAELDGTILKSRPLRIRFATHGAALTVKNLSPVVSNELLEQAFSQFGPVEKAVVVVDDRGRATGKGFVEFAAKPPARKALERCGDGAFLLTTTPRPVIVEPMEQFDDEDGLPEKLMQKTQQYHKEREQPPRFAQPGTFEFEAASRAKALDEMEKQQREQVDRNIREAKEKLEAEMEAARHEHQLMLMRQDLMRRQEELRRLEELRNQELQKRKQIQLRHEEEHRRREEEMIRHREQEELRRQQEGFKPNYMENREQEMRMGDMGPRGAINMGDAFSPAPAGNQGPPPMMGMNMNNRATIPGPPMGPGPAMGPEGAANMGTPMMPDNGAVHNDRFPQGPPSQMGSPMGSRTGSETPQAPMSGVGPVSGGPGGFGRGSQGGNFEGPNKRRRY [Y275A;W279A]

Variants of: B2
Details: with PSPC1, Q8WXF1-1

Row | effect of a mutation on the interaction | Variant
2 | decreasing interaction strength | MQSNKTFNLEKQNHTPRKHHQHHHQQQHHQQQQQQPPPPPIPANGQQASSQNEGLTIDLKNFRKPGEKTFTQRSRLFVGNLPPDITEEEMRKLFEKYGKAGEVFIHKDKGFGFIRLETRTLAEIAKVELDNMPLRGKQLRVRFACHSASLTVRNLPQYVSNELLEEAFSVFGQVERAVVIVDDRGRPSGKGIVEFSGKPAARKALDRCSEGSFLLTTFPRPVTVEPMDQLDDEEGLPEKLVIKNQQFHKEREQPPRFAQPGSFEYEAAMRAKALIEMEKQQQDQVDRNIKEAREKLEMEMEAARHEHQVMLMRQDLMRRQEELRRMEELHNQEVQKRKQLELRQEEERRRREEEMRRQQEEMMRRQQEGFKGTFPDAREQEIRMGQMAMGGAMGINNRGAMPPAPVPAGTPAPPGPATMMPDGTLGLTPPTTERFGQAATMEGIGAIGGTPPAFNRAAPGAEFAPNKRRRY [Y267A;W271A]
